Substrate in data set [1]: CC(=O)N[C@H]1[C@H](O[C@@H]2[C@H](O[C@]3(C(=O)O)C[C@H](O)[C@@H](NC(C)=O)[C@H]([C@@H](O)[C@@H](O)CO)O3)[C@@H](O)[C@H](O[C@H]3[C@H](O)[C@@H](O)[C@@H](F)O[C@@H]3CO)O[C@@H]2CO)O[C@H](CO)[C@H](O)[C@@H]1O[C@@H]1O[C@H](CO)[C@H](O)[C@H](O)[C@H]1O
Nature of the data set: (§1) Ratio of Kcat to Km of Activity of Rhodococcus sp. M777 Endoglycoceramidase 2 T257I T416A mutant.

Substrate in data set [2]: CCCCCCCCCCCCC/C=C/[C@@H](O)[C@@H](N)CO
The description is as §1.

Substrate in data set [3]: CC(=O)N[C@H]1[C@H](O[C@@H]2[C@H](O[C@]3(C(=O)O)C[C@H](O)[C@@H](NC(C)=O)[C@H]([C@@H](O)[C@@H](O)CO)O3)[C@@H](O)[C@H](O[C@H]3[C@H](O)[C@@H](O)[C@@H](F)O[C@@H]3CO)O[C@@H]2CO)O[C@H](CO)[C@H](O)[C@@H]1O[C@@H]1O[C@H](CO)[C@H](O)[C@H](O)[C@H]1O
Description: (§2) Activity of Rhodococcus sp. M777 Endoglycoceramidase 2 T257I T416A mutant.

Substrate in data set [4]: CCCCCCCCCCCCC/C=C/[C@@H](O)[C@@H](N)CO
Described as §2.

Substrate in data set [5]: CC(=O)N[C@H]1[C@H](O[C@@H]2[C@H](O[C@]3(C(=O)O)C[C@H](O)[C@@H](NC(C)=O)[C@H]([C@@H](O)[C@@H](O)CO)O3)[C@@H](O)[C@H](O[C@H]3[C@H](O)[C@@H](O)[C@@H](F)O[C@@H]3CO)O[C@@H]2CO)O[C@H](CO)[C@H](O)[C@@H]1O[C@@H]1O[C@H](CO)[C@H](O)[C@H](O)[C@H]1O
Nature of the data set: (§3) Ratio of Kcat to Km of Activity of Rhodococcus sp. M777 Endoglycoceramidase 2 A153T D314Y mutant.

Substrate in data set [6]: CCCCCCCCCCCCC/C=C/[C@@H](O)[C@@H](N)CO
Described as §3.

Substrate in data set [7]: CC(=O)N[C@H]1[C@H](O[C@@H]2[C@H](O[C@]3(C(=O)O)C[C@H](O)[C@@H](NC(C)=O)[C@H]([C@@H](O)[C@@H](O)CO)O3)[C@@H](O)[C@H](O[C@H]3[C@H](O)[C@@H](O)[C@@H](F)O[C@@H]3CO)O[C@@H]2CO)O[C@H](CO)[C@H](O)[C@@H]1O[C@@H]1O[C@H](CO)[C@H](O)[C@H](O)[C@H]1O
Description: (§4) Activity of Rhodococcus sp. M777 Endoglycoceramidase 2 A153T D314Y mutant.

Substrate in data set [8]: CCCCCCCCCCCCC/C=C/[C@@H](O)[C@@H](N)CO
The data set is described as §4.

Substrate in data set [9]: CC(=O)N[C@H]1[C@H](O[C@@H]2[C@H](O[C@]3(C(=O)O)C[C@H](O)[C@@H](NC(C)=O)[C@H]([C@@H](O)[C@@H](O)CO)O3)[C@@H](O)[C@H](O[C@H]3[C@H](O)[C@@H](O)[C@@H](F)O[C@@H]3CO)O[C@@H]2CO)O[C@H](CO)[C@H](O)[C@@H]1O[C@@H]1O[C@H](CO)[C@H](O)[C@H](O)[C@H]1O
Nature of the data set: (§5) Ratio of Kcat to Km of Activity of Rhodococcus sp. M777 Endoglycoceramidase 2 N334S mutant.

Substrate in data set [10]: CCCCCCCCCCCCC/C=C/[C@@H](O)[C@@H](N)CO
Described as §5.

Substrate in data set [11]: CC(=O)N[C@H]1[C@H](O[C@@H]2[C@H](O[C@]3(C(=O)O)C[C@H](O)[C@@H](NC(C)=O)[C@H]([C@@H](O)[C@@H](O)CO)O3)[C@@H](O)[C@H](O[C@H]3[C@H](O)[C@@H](O)[C@@H](F)O[C@@H]3CO)O[C@@H]2CO)O[C@H](CO)[C@H](O)[C@@H]1O[C@@H]1O[C@H](CO)[C@H](O)[C@H](O)[C@H]1O
Description: (§6) Activity of Rhodococcus sp. M777 Endoglycoceramidase 2 N334S mutant.

Substrate in data set [12]: CCCCCCCCCCCCC/C=C/[C@@H](O)[C@@H](N)CO
The description is as §6.

Substrate in data set [13]: CC(=O)N[C@H]1[C@H](O[C@@H]2[C@H](O[C@]3(C(=O)O)C[C@H](O)[C@@H](NC(C)=O)[C@H]([C@@H](O)[C@@H](O)CO)O3)[C@@H](O)[C@H](O[C@H]3[C@H](O)[C@@H](O)[C@@H](F)O[C@@H]3CO)O[C@@H]2CO)O[C@H](CO)[C@H](O)[C@@H]1O[C@@H]1O[C@H](CO)[C@H](O)[C@H](O)[C@H]1O
Description: (§7) Ratio of Kcat to Km of Activity of Rhodococcus sp. M777 Endoglycoceramidase 2 G370E mutant.

Substrate in data set [14]: CCCCCCCCCCCCC/C=C/[C@@H](O)[C@@H](N)CO
The description is as §7.

Substrate in data set [15]: CC(=O)N[C@H]1[C@H](O[C@@H]2[C@H](O[C@]3(C(=O)O)C[C@H](O)[C@@H](NC(C)=O)[C@H]([C@@H](O)[C@@H](O)CO)O3)[C@@H](O)[C@H](O[C@H]3[C@H](O)[C@@H](O)[C@@H](F)O[C@@H]3CO)O[C@@H]2CO)O[C@H](CO)[C@H](O)[C@@H]1O[C@@H]1O[C@H](CO)[C@H](O)[C@H](O)[C@H]1O
Nature of the data set: (§8) Activity of Rhodococcus sp. M777 Endoglycoceramidase 2 G370E mutant.

Substrate in data set [16]: CCCCCCCCCCCCC/C=C/[C@@H](O)[C@@H](N)CO
The description is as §8.

B1: Endoglycoceramidase II (Rhodococcus sp), A0ACD6B832 T257I,T416A (protein)
chain: MRRTRLVSLIVTGSLVFGGGVAAAQSSLAASGSGSGSGTALTPSYLKDDDGRSLILRGFNTASSAKSAPDGMPQFTEADLAREYADMGTNFVRFLISWRSVEPAPGVYDQQYLDRVEDRVGWYAERGYKVMLDMHQDVYSGAITPEGNSGNGAGAIGNGAPAWATYMDGLPVEPQPRWELYYIQPGVMRAFDNFWNTTGKHPELVEHYAKAWRAVADRFADNDAVVAYDLMNEPFGGSLQGPAFEAGPLAAMYQRTIDAIRQVDQDTWVCVAPQAIGVNQGLPSGLTKIDDPRAGQQRIAYCPHLYPLPLDIGDGHEGLARTLTDVTIDAWRANTAHTARVLGDVPIILGEFGLDTTLPGARDYIERVYGTAREMGAGVSYWSSDPGPWGPYLPDGTQTLLVDTLNKPYPRAVAGAPTEWSSTSDRLQLTIEPDAAITAPTEIYLPEAGFPGDVHVEGADVVGWDRQSRLLTVRTPADSGNVTVTVTPAA
Consider B1, for which the kcat/Km in [1] turned out to be 297 M⁻¹ s⁻¹; in data set [2], 206 M⁻¹ s⁻¹. Further, the Km in data set [3] worked out at 370 µM; in data set [4] it was 870 µM. Besides, the kcat stood at 0.11 s⁻¹ in [3] and 0.18 s⁻¹ in data set [4].

B2: Endoglycoceramidase II (Rhodococcus sp), A0ACD6B832 A153T,D314Y (protein)
chain: MRRTRLVSLIVTGSLVFGGGVAAAQSSLAASGSGSGSGTALTPSYLKDDDGRSLILRGFNTASSAKSAPDGMPQFTEADLAREYADMGTNFVRFLISWRSVEPAPGVYDQQYLDRVEDRVGWYAERGYKVMLDMHQDVYSGAITPEGNSGNGTGAIGNGAPAWATYMDGLPVEPQPRWELYYIQPGVMRAFDNFWNTTGKHPELVEHYAKAWRAVADRFADNDAVVAYDLMNEPFGGSLQGPAFEAGPLAAMYQRTTDAIRQVDQDTWVCVAPQAIGVNQGLPSGLTKIDDPRAGQQRIAYCPHLYPLPLDIGYGHEGLARTLTDVTIDAWRANTAHTARVLGDVPIILGEFGLDTTLPGARDYIERVYGTAREMGAGVSYWSSDPGPWGPYLPDGTQTLLVDTLNKPYPRAVAGTPTEWSSTSDRLQLTIEPDAAITAPTEIYLPEAGFPGDVHVEGADVVGWDRQSRLLTVRTPADSGNVTVTVTPAA
As for B2, the catalytic efficiency (kcat/Km) in data set [5] was 1110 M⁻¹ s⁻¹; in data set [6], 407 M⁻¹ s⁻¹. Also, the Km was 270 µM in data set [7] and 1600 µM in [8]. For the same protein, the kcat is 0.3 s⁻¹ in data set [7] and 0.64 s⁻¹ in data set [8].

B3: Endoglycoceramidase II (Rhodococcus sp), A0ACD6B832 N334S (protein)
chain: MRRTRLVSLIVTGSLVFGGGVAAAQSSLAASGSGSGSGTALTPSYLKDDDGRSLILRGFNTASSAKSAPDGMPQFTEADLAREYADMGTNFVRFLISWRSVEPAPGVYDQQYLDRVEDRVGWYAERGYKVMLDMHQDVYSGAITPEGNSGNGAGAIGNGAPAWATYMDGLPVEPQPRWELYYIQPGVMRAFDNFWNTTGKHPELVEHYAKAWRAVADRFADNDAVVAYDLMNEPFGGSLQGPAFEAGPLAAMYQRTTDAIRQVDQDTWVCVAPQAIGVNQGLPSGLTKIDDPRAGQQRIAYCPHLYPLPLDIGDGHEGLARTLTDVTIDAWRASTAHTARVLGDVPIILGEFGLDTTLPGARDYIERVYGTAREMGAGVSYWSSDPGPWGPYLPDGTQTLLVDTLNKPYPRAVAGTPTEWSSTSDRLQLTIEPDAAITAPTEIYLPEAGFPGDVHVEGADVVGWDRQSRLLTVRTPADSGNVTVTVTPAA
In the case of B3, the kcat/Km was 186 M⁻¹ s⁻¹ in data set [9] and 279 M⁻¹ s⁻¹ in [10]. For the same protein, the figures for the Km in [11] and in data set [12] were 700 µM and 680 µM, respectively. Besides, the catalytic constant (kcat) in data set [11] is 0.13 s⁻¹; in [12] it was 0.19 s⁻¹.

B4: Endoglycoceramidase II (Rhodococcus sp), A0ACD6B832 G370E (protein)
chain: MRRTRLVSLIVTGSLVFGGGVAAAQSSLAASGSGSGSGTALTPSYLKDDDGRSLILRGFNTASSAKSAPDGMPQFTEADLAREYADMGTNFVRFLISWRSVEPAPGVYDQQYLDRVEDRVGWYAERGYKVMLDMHQDVYSGAITPEGNSGNGAGAIGNGAPAWATYMDGLPVEPQPRWELYYIQPGVMRAFDNFWNTTGKHPELVEHYAKAWRAVADRFADNDAVVAYDLMNEPFGGSLQGPAFEAGPLAAMYQRTTDAIRQVDQDTWVCVAPQAIGVNQGLPSGLTKIDDPRAGQQRIAYCPHLYPLPLDIGDGHEGLARTLTDVTIDAWRANTAHTARVLGDVPIILGEFGLDTTLPGARDYIERVYETAREMGAGVSYWSSDPGPWGPYLPDGTQTLLVDTLNKPYPRAVAGTPTEWSSTSDRLQLTIEPDAAITAPTEIYLPEAGFPGDVHVEGADVVGWDRQSRLLTVRTPADSGNVTVTVTPAA
As to B4, the kcat/Km turned out to be 247 M⁻¹ s⁻¹ in [13] and 418 M⁻¹ s⁻¹ in [14]. Besides, the Km in data set [15] came out at 850 µM; in data set [16], 670 µM. In addition, the values for the kcat in data set [15] and in [16] were 0.21 s⁻¹ and 0.28 s⁻¹, respectively.

By kcat/Km is commonly meant the second-order rate constant that governs catalysis at low substrate concentration. As usually defined, the Km is the substrate concentration at which the rate is half of its maximum. The kcat is the number of substrate molecules converted per active site and unit of time at saturation.
